The nanobody polyreactivity screen of Harvey et al. (2022)

experiment: yeast display, Sf9 membrane polyspecificity reagent, FACS + sequencing; frameworks hold sequencing errors
Summary of the method: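 Using colony PCR, genes from sorted yeast display clones were amplified, then sequenced on MiSeq at 2 × 250 and filtered by CDR length. The clones had been stained with 10% biotinylated, detergent-solubilized Sf9 membrane reagent for 1 hour at 4 °C and sorted by FACS into low and high (top ~1%) gates on anti-HA and streptavidin fluorescence. Polyreactivity labels come from the gate of origin.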

**Q.** Which “polyreactivity (PSR sort gate)” value does the source give for “QVQRVESGGGLVQAVGSLRLSCAPSGIIIPVKAMGWYRQAPGKERELVAAITTGGSTNYADSVKGRFTISRDNAKNNVYLQMNSLKPEDTAVYYCAADTARTRIFDYWGQGTQVTVSS” here?
**A.** low polyreactivity

**Q.** For “QVQRVESGGGLVQEGGSLSLSCAASGSTYKNAMGWYRQAPGKERELVAAITWSGGTTYYADSVKGRFTISRDNAKNTVYLQINSLKPEDTAVYYCAAEYRWYSRYFNYWGQGTQVTVSS”, which “polyreactivity (PSR sort gate)” value is on record?
**A.** high polyreactivity

**Q.** For “QVQRVETGGGLVQAAGSLRLSCAASGRTFRNYAMGWYRQAPGKERELVAAIRSGVRTYYADSVKGRFTISRDNAKNTVYLQMNSVKPEDTAVYYCAVATGLLYKSHGYCGQGTQVTVSS”, which “polyreactivity (PSR sort gate)” value is on record?
**A.** low polyreactivity

**Q.** With “QVQRVETGGGLVQARGSLRLSCAASGRIFACYTMGWFRQAPGKERELDAAISWNGGRTYYADSVKGRFTISRDNAKNTVYLQMNSLKPEDTAVYYCAAGKTPQKYGGFNYWGQGTQVTVSS” as the sequence, how does the “polyreactivity (PSR sort gate)” value read?
**A.** high polyreactivity

**Q.** Which “polyreactivity (PSR sort gate)” value does the source give for “QVQVGESGGGLVQAGGSLSLSCAASGSIFPANAMGWYRQAPGKERELVAAITRGGRTYYADSVKGIFTISRDNAKNCVYLQMNSLKPEDTAVYDCAAYVLSKREYYRYDYWGQGTQVTVSS” here?
**A.** high polyreactivity

**Q.** For “QVQVVESGGALVQAGGSLRLSCAASGRTFDWNAMGWYRQAPGKERELVAAITYSGGGTYYADSVKVRFTISRDHATNTVYLQMNSLKPEDTAVYYCAAGYPGTWSYYYWGQGTQVTVSS”, which “polyreactivity (PSR sort gate)” value is on record?
**A.** low polyreactivity

**Q.** Which “polyreactivity (PSR sort gate)” value does the source give for “QVQVVESGGGFVQAGGSLRLSCAASGRTFAVYAMGWYTQAPGKEREFVATISVSDGSTYYADTVKGRFTISRDNAKNTVYLQMNSLKPEDTAVYYCAAQRWTVKYNYWGQGTQVTVSS” here?
**A.** high polyreactivity

**Q.** Which “polyreactivity (PSR sort gate)” value does the source give for “QVQVVESGGGFVQAGGSLRLSCAASGRTFRYYAMGWYRQAPGKERELVAVISSSDSTNYADSVKGRFTISRDNAKNTVNLQMNSLKPEDTGVYYCAKVYRVIRPYGYWGQGTQVTVSS” here?
**A.** high polyreactivity

**Q.** Which “polyreactivity (PSR sort gate)” value does the source give for “QVQVVESGGGIVQAGGSLRLSCAASGSIFETYAMGWYRQAPGKESELVAAISRTSGRTYYADSVKGRFTISRDNAMNSVYLQMNSLKPDDTAVYYCAAVVRNPGTYDYWGQGTQVTVSS” here?
**A.** high polyreactivity

**Q.** With “QVQVVESGGGLDQAGGSLGLSCAASGSIFIKYAMGWSRQAPRKERELVAAISRRGGSPYYADSVKGRFTISRDNAKNTVYLQMISLKPEDTAVYYCAAVNISFGYADRFYYVYRGDYWGQGTQVTVSS” as the sequence, how does the “polyreactivity (PSR sort gate)” value read?
**A.** high polyreactivity

**Q.** Which “polyreactivity (PSR sort gate)” value does the source give for “QVQVVESGGGLLQAGVSLRLSCAASGRTFSKYDMGLYRQPPGKERELVAAITRTGSSTYYADSVKGRFTISRDNAKNTVYLQMNSLKPEDTAVYYCAADRYLRYSGSSSDYGYWVQGTQVTVSS” here?
**A.** low polyreactivity

**Q.** Which “polyreactivity (PSR sort gate)” value does the source give for “QVQVVESGGGLVQAGCSLRLSCAASGFTFRDYAMGWYRPAPGKERELVATITLRVGSTFYADSLKGRFTISRDNAKNTVYLQKNSLKPEDTAVYYCADEDSNVVAYDYWGQGTQVTVSS” here?
**A.** low polyreactivity

**Q.** For “QVQVVESGGGLVQAGGSHRLSCAASGSTFIRYPMGWYRQAPGKERELVAAITWSGGSTYYADSVKGRFTISRDNAKNTVYLQMNSLKPEDTAFYYCAARGPSLSNYRGRMYYWGQGTQVTVSS”, which “polyreactivity (PSR sort gate)” value is on record?
**A.** high polyreactivity

**Q.** Which “polyreactivity (PSR sort gate)” value does the source give for “QVQVVESGGGLVQAGGSLGLSCAASGSTFTRNAMGWYRQAPGKERELVAAITSSGGSTYYADSVKGRFTISRDNAKNTVYLLMNSLKPEDTAVYYCAAYVRPSYFGWMDYWGQGTQVTVSS” here?
**A.** low polyreactivity

**Q.** Which “polyreactivity (PSR sort gate)” value does the source give for “QVQVVESGGGLVQAGGSLRISCAASGRILGNNVMGWYRQAPWKERDLVAAITSSGGRTYYADSVKGRFTISRDNAKNTVYLQMNSLKPVDTAVYYCAAERRYYGKFNYWGHGTQVTVSS” here?
**A.** high polyreactivity

**Q.** Which “polyreactivity (PSR sort gate)” value does the source give for “QVQVVESGGGLVQAGGSLRLICAASGSTFYSYAMGWYRQAPGKERELVAPISSSGVRTYYADSVKGRFTISRDNAKNTVFLQMISLKPEDTAVYYCNTYLKRYVGRGGPSYYWGQGTQVTVSS” here?
**A.** high polyreactivity

**Q.** With “QVQVVESGGGLVQAGGSLRLSCAASGFTFAVYAMGWYRQAPGKERELVAAISRSGTRTYYADSVKGRFTISRDNAKNTVYVQMNSLKPEDTAVYYCAADKYRHGYDYWGQGTQVTVSS” as the sequence, how does the “polyreactivity (PSR sort gate)” value read?
**A.** low polyreactivity

**Q.** Which “polyreactivity (PSR sort gate)” value does the source give for “QVQVVESGGGLVQAGGSLRLSCAASGFTSTRYAMGWYRQAPGKERELVAAISYGGGDTYYADSVKGRFTISRDNAKNSVYLQMNSMKPEDTAVYYCNARGRYRKSERRAFDYWGQGTQVTVSS” here?
**A.** high polyreactivity

**Q.** For “QVQVVESGGGLVQAGGSLRLSCAASGITFFLNAMGWYRQAPGKERELVAAISSGAGTTYADSVKGRFTISRDNAKNTFFLQMKSLKPEDTAVYYCAAAGDYVVPISSTAGFGGDYWGQGTQVTVSS”, which “polyreactivity (PSR sort gate)” value is on record?
**A.** low polyreactivity

**Q.** With “QVQVVESGGGLVQAGGSLRLSCAASGLTFQVYAKGWYRQAPGKERELVARISSSGSSTYADSVKGRFTISRDNAKNTVYLQMNSLKPEDTAVYYCNAGKRQRGEYWGQGTQVTVSS” as the sequence, how does the “polyreactivity (PSR sort gate)” value read?
**A.** high polyreactivity

**Q.** For “QVQVVESGGGLVQAGGSLRLSCAASGRIFGYNAMGWYRQAPGKERELVAAISSGGSTYYADSVKGRFTISRDNAKNTVYLLMHSLKPEDTAVYYCAAEDYPPYPTVYDYWGQGTQVTVSS”, which “polyreactivity (PSR sort gate)” value is on record?
**A.** low polyreactivity

**Q.** With “QVQVVESGGGLVQAGGSLRLSCAASGSIFFVYAMGWYRQAPGKERELVAAISSGDITYYADSVKGRFTISRDNAKNTVYLQLISLKPEDTAVYYCNAERLGNTLSPGGDDYWGQGTQVTVSS” as the sequence, how does the “polyreactivity (PSR sort gate)” value read?
**A.** low polyreactivity

**Q.** For “QVQVVESGGGLVQAGGSLRLSCAASGSIFSGYAMGWYREAPGKERELVAAITSSGGSTYYADSVKGRFTISRDNAKKTVYLQMHSLKPEDTAVYYCAAYRYRYYSYDSWGQGTQVTVSS”, which “polyreactivity (PSR sort gate)” value is on record?
**A.** high polyreactivity

**Q.** For “QVQVVESGGGLVQAGGSLRLSCAASGSIFSWNAMGWYRQAPGKERELVAAISKRGTSTYYADSVKGRFTISRDNAKNTVYLQMNSLKPEDTAVYYCAVSRIVDFGQKMYYWGQGTQVTVSS”, which “polyreactivity (PSR sort gate)” value is on record?
**A.** high polyreactivity

**Q.** For “QVQVVESGGGLVQAGGSLRLSCAASGSISDSYAMGWYRQAPGKERELVAAITSGDSTYYADSVKGRFTISRDNAKNTVYLQMNSLKPEDTAVYYCAKRVSRVRGYGFTDWSEYDYWGQVTQVTVSS”, which “polyreactivity (PSR sort gate)” value is on record?
**A.** low polyreactivity

**Q.** With “QVQVVESGGGLVQAGGSLRLSCAASGSTFFFYAMGWYIHAPGKERELVAAISSTGRKYYADSVKGRFTISRDNAKNTVYLQMNSLTPEDTAVYYCAARIYSGYSYWGQCTQVTVSS” as the sequence, how does the “polyreactivity (PSR sort gate)” value read?
**A.** high polyreactivity

**Q.** For “QVQVVESGGGLVQAGGSLRLSCAASGSTFGVYAMGWYRQAPGKEWELVAAISASTGSTYYADSVKGRFTISRDNAKQTVYLQMNSRKPEHTAVYYCAAAGYGKVRGDYWGQGTQVTVTS”, which “polyreactivity (PSR sort gate)” value is on record?
**A.** low polyreactivity

**Q.** Which “polyreactivity (PSR sort gate)” value does the source give for “QVQVVESGGGLVQAGGSLRLSCAASGYIINQYTMGWYRQAPGKERELVADNSSGGSTTYADSVKGRFTISRDNAKNTVYLQMNSLKTEHTAVYYCNAEYDSGSPTAYDWEYDYWGHGTQVTVSS” here?
**A.** high polyreactivity

**Q.** With “QVQVVESGGGLVQAGGSLRLSSAASGSTFNYNAMGWYRQAPGKERELVAAITNGGSTSYADSVKGRFTISRDNAKNTVYLQMNSLKPEDTAVYYCNADEDLRGYDYWGQGTQVTVSS” as the sequence, how does the “polyreactivity (PSR sort gate)” value read?
**A.** low polyreactivity

**Q.** With “QVQVVESGGGLVQEGGSLRLSCAASGSTFGINAMGWYRPAPGKEREWVAAITSTGRTYYADSVKGRFTNSRDNAKNTVYLQMNSLKPEDTAVYYCAAVWRYKGLLLPSYYYWGQGTQVTVSS” as the sequence, how does the “polyreactivity (PSR sort gate)” value read?
**A.** high polyreactivity

**Q.** For “QVQVVESGGGLVQTGGSLRLSCAASGSTFRRYDMGWYRPAPGKEWELVAAISVSGGNTYYADSVKGRFTISRDNAKNTVYLQMNSLKPEDTAVYYCATSRWVDNKYTLRSRYYYWGQGTQVTVSS”, which “polyreactivity (PSR sort gate)” value is on record?
**A.** high polyreactivity

**Q.** With “QVQVVESRGGLVQAGGRLRLSCAASGSTFGVNAMGWYRTAPGKERELVAAISYTGGSTYYADSVKGRFTISRDNAKNTVYLQMNSLKAEHTAVSYCAVEVGYTDSPYSYDYWGQGTQVTVSS” as the sequence, how does the “polyreactivity (PSR sort gate)” value read?
**A.** low polyreactivity

**Q.** For “QVQVVETGGGLVQAGGSLRLSCAPSGITFVTYAMGWYRQAPGKERELVAAISRSGGRTYYADSVNVRFTISRDNAKNTVYLQMNSLKPEDTAVYYCAAERKNKYDYWGQGTQVTVSS”, which “polyreactivity (PSR sort gate)” value is on record?
**A.** high polyreactivity

**Q.** With “QVQVVKSGGGLVQAGGSLSLSCAASGRTFGVYAMGWYRQAPGNESELVAGIRWRGGSTYYADSVKGRFTISRDNSKNTVYLQMKSLKPEETAVYYCAADVDLVKDDYWGQGTQVTVSS” as the sequence, how does the “polyreactivity (PSR sort gate)” value read?
**A.** low polyreactivity

**Q.** With “QVRLVESGGGLVQAGGSLRLSCAASGRTLFVYDMGWYRQAPGKERELVAAISTGDDTNYADSVKGRFTISRDNAKNTVYLQMNSLKPEDTAVYYCNALYYTYPYWGYPSDYNLDYWGQGTQVTVSS” as the sequence, how does the “polyreactivity (PSR sort gate)” value read?
**A.** low polyreactivity

**Q.** With “QVRLVESGGGLVQAGGSLRLSCAASGSTFKTYAMGWYRQAPGIERELVAAISAGGGSTYYADSVKGRFTISRDNAKNTVYLQMNSLKPEDTAVYYCAAAYIYAGWDYEYGGQGTQVTVSS” as the sequence, how does the “polyreactivity (PSR sort gate)” value read?
**A.** low polyreactivity

**Q.** With “RSGGGLVQAGGSLRLSCAPSGRIFKINAMGWYRQPPGKERALVARITRGGSTYYADSVKGRFTISRDNATNTVYLQMTSVKPEDTAVYYCAADDTGPYSNSYDYWGQGTQVTFSS” as the sequence, how does the “polyreactivity (PSR sort gate)” value read?
**A.** low polyreactivity

**Q.** With “RVQLQESGGGLVQAGGSLRLSCAASGTIFIRGDMGWYRQAPGKEREFVATIDTGSNTYYADSEKGRFTISRDNATNAVYLHMNCLKPGDTAFYYCVVDYQLSGRLRYWGQGTQVTLSS” as the sequence, how does the “polyreactivity (PSR sort gate)” value read?
**A.** low polyreactivity

**Q.** Which “polyreactivity (PSR sort gate)” value does the source give for “RVQLVESGGGLVQAGGSLRLSCAASGRIFDNYVMGCYRQAPGKDRELLAAISSGGGTYYADSVKGRFTISRDNAMNTVYLQMNSLKPEDTAVYFCAKRRVYDRSFGRYDYWGQGTQVTGSS” here?
**A.** low polyreactivity

**Q.** For “RVQLVESGGGLVQAGGSLRLSCAASGSTFLVYAMGWYRQAPGKERELVAVIRWRDGSTYYADSVKGRFTISRDNAKNTVYLQLNSLKPEDTAVYYCAAVYWGEEYEYWGQGTQVTVSS”, which “polyreactivity (PSR sort gate)” value is on record?
**A.** low polyreactivity
